{"source": "patent US20220347322A1", "about": "“METHOD OF TREATING ARTERIOVENOUS MALFORMATIONS BY TARGETING THE EPHRIN PATHWAY” (THE REGENTS OF THE UNIVERSITY OF CALIFORNIA, priority 2019, published 2022)", "origin": "cited, not measured here", "molecules": {"B1": {"name": "sEphB4: The soluble extracellular domain of EphB4; pharmacological inhibitor of EphB4 signaling (protein, UniProt P54760 16-539, looked up)", "extracellular domain": "LEETLLNTKLETADLKWVTFPQVDGQWEELSGLDEEQHSVRTYEVCDVQRAPGQAHWLRTGWVPRRGAVHVYATLRFTMLECLSLPRAGRSCKETFTVFYYESDADTATALTPAWMENPYIKVDTVAAEHLTRKRPGAEATGKVNVKTLRLGPLSKAGFYLAFQDQGACMALLSLHLFYKKCAQLTVNLTRFPETVPRELVVPVAGSCVVDAVPAPGPSPSLYCREDGQWAEQPVTGCSCAPGFEAAEGNTKCRACAQGTFKPLSGEGSCQPCPANSHSNTIGSAVCQCRVGYFRARTDPRGAPCTTPPSAPRSVVSRLNGSSLHLEWSAPLESGGREDLTYALRCRECRPGGSCAPCGGDLTFDPGPRDLVEPWVVVRGLRPDFTYTFEVTALNGVSSLATGPVPFEPVNVTTDREVPPAVSDIRVTRSSPSSLSLAWAVPRAPSGAVLDYEVKYHEKGAEGPSSVRFLKTSENRAELRGLKRGASYLVQVRARSEAGYGPFGQEHHSQTQLDESEGWREQLA", "modifications": "extracellular domain"}}, "test_system": "EphB4 signaling", "conditions": "in mice; cited reference 38; cited from earlier work"}
{"molecule": "B1", "values": [{"measurement": "inhibition of EphB4 signaling", "value": "completely inhibits EphB4 signaling"}]}
